T1: human IL-2Rβ (human, UniProt P14784 27-240, limits assumed)
T1 construct: also called hIL-2Rβ; IL-2 receptor beta
T1 sequence (looked up): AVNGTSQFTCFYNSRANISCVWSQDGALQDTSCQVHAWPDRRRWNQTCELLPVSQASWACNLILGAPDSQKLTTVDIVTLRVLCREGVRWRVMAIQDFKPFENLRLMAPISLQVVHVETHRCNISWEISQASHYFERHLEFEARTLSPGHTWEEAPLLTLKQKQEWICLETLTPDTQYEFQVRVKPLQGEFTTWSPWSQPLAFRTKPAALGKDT


How the values were obtained:
human IL-15Rα = target: T2, human IL-15Rα (human, UniProt Q13261 31-205, limits assumed); experiment: SPR, steady state
T2 construct: also called hIL-15Rα; IL-15 receptor alpha
T2 sequence (Q13261 31-205 limits assumed): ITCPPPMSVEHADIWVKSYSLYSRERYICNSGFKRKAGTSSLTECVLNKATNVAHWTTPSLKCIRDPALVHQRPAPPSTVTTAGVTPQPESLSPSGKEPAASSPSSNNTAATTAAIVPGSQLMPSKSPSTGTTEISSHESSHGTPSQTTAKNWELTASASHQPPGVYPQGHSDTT

human IL-2Rβ = target: T1, human IL-2Rβ; experiment: SPR, steady state

Binder	Kd (human IL-15Rα) [nM]	Kd (human IL-2Rβ) [nM]
hIL-15 V49R/I111A (ligand) NWVNVISDLKKIEDLIQSMHIDATLYTESDVHPSCKVTAMKCFLLELQRISLESGDASIHDTVENLIILANNSLSSNGNVTESGCKECEELEEKNIKEFLQSFVHIVQMFANTGGGGSGHHHHHHHHGGGLNDIFEAQKIEWHE	173	375
hIL-15 V49R/K10G (ligand) NWVNVISDLGKIEDLIQSMHIDATLYTESDVHPSCKVTAMKCFLLELQRISLESGDASIHDTVENLIILANNSLSSNGNVTESGCKECEELEEKNIKEFLQSFVHIVQMFINTGGGGSGHHHHHHHHGGGLNDIFEAQKIEWHE	209	> 500
hIL-15 V49R/K11S (ligand) NWVNVISDLKSIEDLIQSMHIDATLYTESDVHPSCKVTAMKCFLLELQRISLESGDASIHDTVENLIILANNSLSSNGNVTESGCKECEELEEKNIKEFLQSFVHIVQMFINTGGGGSGHHHHHHHHGGGLNDIFEAQKIEWHE	194	453
hIL-15 V49R/K11E (ligand) NWVNVISDLKEIEDLIQSMHIDATLYTESDVHPSCKVTAMKCFLLELQRISLESGDASIHDTVENLIILANNSLSSNGNVTESGCKECEELEEKNIKEFLQSFVHIVQMFINTGGGGSGHHHHHHHHGGGLNDIFEAQKIEWHE	159	160
hIL-15 V49R/K11A (ligand) NWVNVISDLKAIEDLIQSMHIDATLYTESDVHPSCKVTAMKCFLLELQRISLESGDASIHDTVENLIILANNSLSSNGNVTESGCKECEELEEKNIKEFLQSFVHIVQMFINTGGGGSGHHHHHHHHGGGLNDIFEAQKIEWHE	191	206
hIL-15 V49R/K11N (ligand) NWVNVISDLKNIEDLIQSMHIDATLYTESDVHPSCKVTAMKCFLLELQRISLESGDASIHDTVENLIILANNSLSSNGNVTESGCKECEELEEKNIKEFLQSFVHIVQMFINTGGGGSGHHHHHHHHGGGLNDIFEAQKIEWHE	217	291
hIL-15 V49R/K11H (ligand) NWVNVISDLKHIEDLIQSMHIDATLYTESDVHPSCKVTAMKCFLLELQRISLESGDASIHDTVENLIILANNSLSSNGNVTESGCKECEELEEKNIKEFLQSFVHIVQMFINTGGGGSGHHHHHHHHGGGLNDIFEAQKIEWHE	147	104
hIL-15 V49R/I111K (ligand) NWVNVISDLKKIEDLIQSMHIDATLYTESDVHPSCKVTAMKCFLLELQRISLESGDASIHDTVENLIILANNSLSSNGNVTESGCKECEELEEKNIKEFLQSFVHIVQMFKNTGGGGSGHHHHHHHHGGGLNDIFEAQKIEWHE	199	397
hIL-15 V49R/I111S (ligand) NWVNVISDLKKIEDLIQSMHIDATLYTESDVHPSCKVTAMKCFLLELQRISLESGDASIHDTVENLIILANNSLSSNGNVTESGCKECEELEEKNIKEFLQSFVHIVQMFSNTGGGGSGHHHHHHHHGGGLNDIFEAQKIEWHE	223	> 500
hIL-15 V49R/I111D (ligand) NWVNVISDLKKIEDLIQSMHIDATLYTESDVHPSCKVTAMKCFLLELQRISLESGDASIHDTVENLIILANNSLSSNGNVTESGCKECEELEEKNIKEFLQSFVHIVQMFDNTGGGGSGHHHHHHHHGGGLNDIFEAQKIEWHE	214	> 500
hIL-15 V49R/K11T (ligand) NWVNVISDLKTIEDLIQSMHIDATLYTESDVHPSCKVTAMKCFLLELQRISLESGDASIHDTVENLIILANNSLSSNGNVTESGCKECEELEEKNIKEFLQSFVHIVQMFINTGGGGSGHHHHHHHHGGGLNDIFEAQKIEWHE	169	225
hIL-15 V49R/K10D (ligand) NWVNVISDLDKIEDLIQSMHIDATLYTESDVHPSCKVTAMKCFLLELQRISLESGDASIHDTVENLIILANNSLSSNGNVTESGCKECEELEEKNIKEFLQSFVHIVQMFINTGGGGSGHHHHHHHHGGGLNDIFEAQKIEWHE	270	> 500
hIL-15 V49R/K11D (ligand) NWVNVISDLKDIEDLIQSMHIDATLYTESDVHPSCKVTAMKCFLLELQRISLESGDASIHDTVENLIILANNSLSSNGNVTESGCKECEELEEKNIKEFLQSFVHIVQMFINTGGGGSGHHHHHHHHGGGLNDIFEAQKIEWHE	242	> 500
hIL-15 V49R/K11Q (ligand) NWVNVISDLKQIEDLIQSMHIDATLYTESDVHPSCKVTAMKCFLLELQRISLESGDASIHDTVENLIILANNSLSSNGNVTESGCKECEELEEKNIKEFLQSFVHIVQMFINTGGGGSGHHHHHHHHGGGLNDIFEAQKIEWHE	156	107
hIL-15 V49R/K10A (ligand) NWVNVISDLAKIEDLIQSMHIDATLYTESDVHPSCKVTAMKCFLLELQRISLESGDASIHDTVENLIILANNSLSSNGNVTESGCKECEELEEKNIKEFLQSFVHIVQMFINTGGGGSGHHHHHHHHGGGLNDIFEAQKIEWHE	150	321
hIL-15 V49R/K10S (ligand) NWVNVISDLSKIEDLIQSMHIDATLYTESDVHPSCKVTAMKCFLLELQRISLESGDASIHDTVENLIILANNSLSSNGNVTESGCKECEELEEKNIKEFLQSFVHIVQMFINTGGGGSGHHHHHHHHGGGLNDIFEAQKIEWHE	195	496

The next binders have a lower Kd (human IL-15Rα) than those just listed; values first:

Kd (human IL-15Rα) [nM]	Kd (human IL-2Rβ) [nM]	Binder
142	92.2	hIL-15 V49R/K11L (ligand) NWVNVISDLKLIEDLIQSMHIDATLYTESDVHPSCKVTAMKCFLLELQRISLESGDASIHDTVENLIILANNSLSSNGNVTESGCKECEELEEKNIKEFLQSFVHIVQMFINTGGGGSGHHHHHHHHGGGLNDIFEAQKIEWHE
140	138	hIL-15 V49R/K11R (ligand) NWVNVISDLKRIEDLIQSMHIDATLYTESDVHPSCKVTAMKCFLLELQRISLESGDASIHDTVENLIILANNSLSSNGNVTESGCKECEELEEKNIKEFLQSFVHIVQMFINTGGGGSGHHHHHHHHGGGLNDIFEAQKIEWHE
128	230	hIL-15 V49R/K10N (ligand) NWVNVISDLNKIEDLIQSMHIDATLYTESDVHPSCKVTAMKCFLLELQRISLESGDASIHDTVENLIILANNSLSSNGNVTESGCKECEELEEKNIKEFLQSFVHIVQMFINTGGGGSGHHHHHHHHGGGLNDIFEAQKIEWHE
126	360	hIL-15 V49R/K10E (ligand) NWVNVISDLEKIEDLIQSMHIDATLYTESDVHPSCKVTAMKCFLLELQRISLESGDASIHDTVENLIILANNSLSSNGNVTESGCKECEELEEKNIKEFLQSFVHIVQMFINTGGGGSGHHHHHHHHGGGLNDIFEAQKIEWHE
124	348	hIL-15 V49R/K10L (ligand) NWVNVISDLLKIEDLIQSMHIDATLYTESDVHPSCKVTAMKCFLLELQRISLESGDASIHDTVENLIILANNSLSSNGNVTESGCKECEELEEKNIKEFLQSFVHIVQMFINTGGGGSGHHHHHHHHGGGLNDIFEAQKIEWHE
122	391	hIL-15 V49R/K10M (ligand) NWVNVISDLMKIEDLIQSMHIDATLYTESDVHPSCKVTAMKCFLLELQRISLESGDASIHDTVENLIILANNSLSSNGNVTESGCKECEELEEKNIKEFLQSFVHIVQMFINTGGGGSGHHHHHHHHGGGLNDIFEAQKIEWHE
101	185	hIL-15 V49R/K10W (ligand) NWVNVISDLWKIEDLIQSMHIDATLYTESDVHPSCKVTAMKCFLLELQRISLESGDASIHDTVENLIILANNSLSSNGNVTESGCKECEELEEKNIKEFLQSFVHIVQMFINTGGGGSGHHHHHHHHGGGLNDIFEAQKIEWHE
100	250	hIL-15 V49R/K10Q (ligand) NWVNVISDLQKIEDLIQSMHIDATLYTESDVHPSCKVTAMKCFLLELQRISLESGDASIHDTVENLIILANNSLSSNGNVTESGCKECEELEEKNIKEFLQSFVHIVQMFINTGGGGSGHHHHHHHHGGGLNDIFEAQKIEWHE
95.8	76	hIL-15 V49R/K11I (ligand) NWVNVISDLKIIEDLIQSMHIDATLYTESDVHPSCKVTAMKCFLLELQRISLESGDASIHDTVENLIILANNSLSSNGNVTESGCKECEELEEKNIKEFLQSFVHIVQMFINTGGGGSGHHHHHHHHGGGLNDIFEAQKIEWHE
94.5	146	hIL-15 V49R/K10R (ligand) NWVNVISDLRKIEDLIQSMHIDATLYTESDVHPSCKVTAMKCFLLELQRISLESGDASIHDTVENLIILANNSLSSNGNVTESGCKECEELEEKNIKEFLQSFVHIVQMFINTGGGGSGHHHHHHHHGGGLNDIFEAQKIEWHE
85.6	114	hIL-15 V49R/K10H (ligand) NWVNVISDLHKIEDLIQSMHIDATLYTESDVHPSCKVTAMKCFLLELQRISLESGDASIHDTVENLIILANNSLSSNGNVTESGCKECEELEEKNIKEFLQSFVHIVQMFINTGGGGSGHHHHHHHHGGGLNDIFEAQKIEWHE
